In paper PMC5928759, “D-Serine Metabolism and Its Importance in Development of Dictyostelium discoideum” (Frontiers in Microbiology, 2018):

B1: D-amino acid oxidase (DAO; DDB0238432 protein) (Dictyostelium discoideum) (protein)
chain: MNQNKNNNNKNPKINLLIIGCGCIGLSTGIIALKSGNYKSVSIWAKDLPPNTTSNKAAALWYPFLCNPLDLVGKWSAETMQYYKDHIINDPKSGTITKKVNEIFRRPHPEDPEWKPYIKSFRRARKDELPDGYVDGYAIDDGFVMDTDMYMDYLVDQFKSLGGIIEQRHLVDIREAFVDHDVVVNCTGLGSRELFNDRTIYPGRGQIIVIKNSTDRSIMDEEDHIAYVIPRLTNTVLGGTNQEHDYNTNPTKKDTEEILKRVAMISPRFAKNRIEIQGVKVGLRPARHEIRLENEFFEGGSKLVVHNYGHGGSGFTVSWGCAIEAIKLVDQGLPKLLHFNKLISKL

Legend:
[1] = target: T1, D-amino acid oxidase (DAO; DDB0238432 protein) (Dictyostelium discoideum, UniProt Q556W1); test: UV-visible spectrum of purified enzyme; type: binding; settings: oxidized flavin, maxima around 360 and 450 nm; FAD in storage buffer
T1 construct: gene ddo-1; cDNA from EST clone in pET15b, N-terminal 6-His tag, expressed in E. coli Rosetta (DE3), Ni-NTA purified

purified protein [2] = substrate: N[C@H](CO)C(=O)O; test: purified protein; settings: oxidative deamination, 50 mM Tris-HCl pH 8.5, 20 μM FAD
purified protein [3] = substrate: C[C@@H](N)C(=O)O; test: purified protein; settings: oxidative deamination, 50 mM Tris-HCl pH 8.5, 20 μM FAD

Molecule | UV-visible spectrum of purified enzyme [1] | Km (purified protein [2]) [mM] | kcat (purified protein [2]) [s⁻¹] | kcat/Km (purified protein [2]) [M⁻¹ s⁻¹] | Km (purified protein [3]) [mM] | kcat (purified protein [3]) [s⁻¹] | kcat/Km (purified protein [3]) [M⁻¹ s⁻¹]
Cc1cc2nc3c(=O)[nH]c(=O)nc-3n(C[C@H](O)[C@H](O)[C@H](O)COP(=O)(O)OP(=O)(O)OC[C@H]3O[C@@H](n4cnc5c(N)ncnc54)[C@H](O)[C@@H]3O)c2cc1C [FAD] | indicating that it possesses an oxidized form of the flavin cofactor | – | – | – | – | – | –
B1 | – | 6.1 ± 0.78 | 0.05 | 10 | 0.78 ± 0.05 | 0.53 | 680
